Data: publication PMC12700175

Target: Pyruvate kinase M2 (PKM2) of mouse retina (mouse (endogenous in retina)) (UniProt P52480)
Assay: cross-linking

A stoichiometry N of 4 was found for “Pyruvate kinase M2 (PKM2) of mouse retina (from UniProt P52480 1-531) (enzyme)” in this work.
